These sequences were tested on Escherichia coli TOP10 (assay: shrunken log2 fold change of peptide-encoding DNA abundance (4.5 h post-induction vs induction); higher = less antimicrobial activity (less host growth inhibition)). Conditions: time post-induction: 4.5 h; library: site-saturation at positions 5, 18, 19, 20.
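Further: peptides expressed intracellularly from a pBAD plasmid library in pooled LB shake-flask culture, induced with 0.3% L-arabinose, DNA abundance read by NGS, three biological replicates, DESeq2 with apeglm shrinkage.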

Sequence | shrunken log2 fold change
RRIRDRPPRLPRPRPRPYRAPRP | -0.118
RRIRSRPPRLPRPRPRPRQIPRP | -0.066
RRIRWRPPRLPRPRPRPCGKPRP | 0.0489
RRIRTRPPRLPRPRPRPTLYPRP | -0.102
RRIRNRPPRLPRPRPRPWDQPRP | 0.0603
RRIRGRPPRLPRPRPRPSNVPRP | 0.175
RRIRKRPPRLPRPRPRPERFPRP | -0.0391
RRIRQRPPRLPRPRPRPADRPRP | 0.0738
RRIRSRPPRLPRPRPRPQAWPRP | -0.0983
RRIRPRPPRLPRPRPRPIYFPRP | -0.205
RRIRARPPRLPRPRPRPSRKPRP | 0.00605
RRIRLRPPRLPRPRPRPVKRPRP | 0.0647
RRIRLRPPRLPRPRPRPSWGPRP | 0.00407
RRIRWRPPRLPRPRPRPLCVPRP | 0.0447
RRIRQRPPRLPRPRPRPEYFPRP | -0.0285
RRIRTRPPRLPRPRPRPRFTPRP | 0.0679
RRIRRRPPRLPRPRPRPWNPPRP | -0.212
RRIRVRPPRLPRPRPRPMYFPRP | -0.569
RRIRDRPPRLPRPRPRPQTTPRP | 0.0462
RRIRYRPPRLPRPRPRPRNEPRP | -0.0133
RRIRPRPPRLPRPRPRPHYTPRP | -0.516
RRIRYRPPRLPRPRPRPYCRPRP | -0.377
RRIRKRPPRLPRPRPRPCARPRP | -0.00716
RRIRIRPPRLPRPRPRPNSCPRP | -0.184
RRIRIRPPRLPRPRPRPASMPRP | -0.281

Sequence | shrunken log2 fold change
RRIRLRPPRLPRPRPRPGRMPRP | 0.123
RRIRDRPPRLPRPRPRPQMQPRP | 0.135
RRIRARPPRLPRPRPRPNIKPRP | -0.14
RRIRYRPPRLPRPRPRPQSTPRP | -1.2
RRIRHRPPRLPRPRPRPKGLPRP | 0.0749
RRIRMRPPRLPRPRPRPADSPRP | 0.264
RRIRMRPPRLPRPRPRPHHVPRP | -0.143
RRIRFRPPRLPRPRPRPSEYPRP | -0.288
RRIRDRPPRLPRPRPRPTIIPRP | -0.127
RRIRLRPPRLPRPRPRPFDYPRP | -0.974
RRIRERPPRLPRPRPRPMGMPRP | -0.00992
RRIRKRPPRLPRPRPRPHISPRP | -0.00759
RRIRNRPPRLPRPRPRPIPGPRP | -0.0332
RRIRMRPPRLPRPRPRPAFIPRP | -0.398
RRIRYRPPRLPRPRPRPREYPRP | 0.0168
RRIRIRPPRLPRPRPRPHLCPRP | 0.0475
RRIRPRPPRLPRPRPRPAFKPRP | 0.192
RRIRARPPRLPRPRPRPPVGPRP | 1.18
RRIRSRPPRLPRPRPRPEKFPRP | -0.146
RRIRARPPRLPRPRPRPFFPPRP | 0.527
RRIRVRPPRLPRPRPRPHQPPRP | 0.0593
RRIRSRPPRLPRPRPRPIRVPRP | 0.047
RRIRWRPPRLPRPRPRPMMHPRP | 0.159
RRIRCRPPRLPRPRPRPQHYPRP | -0.796
RRIRKRPPRLPRPRPRPPKLPRP | 0.658

Sequence | shrunken log2 fold change
RRIRCRPPRLPRPRPRPTRMPRP | 0.0511
RRIRHRPPRLPRPRPRPNLMPRP | 0.0972
RRIRARPPRLPRPRPRPTKQPRP | -0.148
RRIRTRPPRLPRPRPRPKEQPRP | 0.0592
RRIRGRPPRLPRPRPRPEGCPRP | 1.65
RRIRQRPPRLPRPRPRPGEFPRP | 0.313
RRIRPRPPRLPRPRPRPAYNPRP | -1.01
RRIRRRPPRLPRPRPRPHVRPRP | 0.0936
RRIRERPPRLPRPRPRPQYEPRP | -0.624
RRIRFRPPRLPRPRPRPQQEPRP | -0.0424
RRIRIRPPRLPRPRPRPHAEPRP | -0.217
RRIRLRPPRLPRPRPRPGSEPRP | -0.0984
RRIRKRPPRLPRPRPRPHLDPRP | 0.00976
RRIRHRPPRLPRPRPRPQVIPRP | -0.0106
RRIRDRPPRLPRPRPRPLMRPRP | 0.665
RRIRSRPPRLPRPRPRPTTMPRP | 0.0245
RRIRCRPPRLPRPRPRPLGHPRP | -0.372
RRIRCRPPRLPRPRPRPICKPRP | 0.0601
RRIRVRPPRLPRPRPRPHSGPRP | -0.022
RRIRYRPPRLPRPRPRPDTSPRP | -0.0824
RRIRKRPPRLPRPRPRPWHLPRP | -0.596
RRIRVRPPRLPRPRPRPRWFPRP | -0.0978
RRIRTRPPRLPRPRPRPPSYPRP | -0.0622
RRIRKRPPRLPRPRPRPFDKPRP | 0.132
RRIRNRPPRLPRPRPRPNMQPRP | -0.184

Source: the supplement of paper PMC9112550, “Optimization of the antimicrobial peptide Bac7 by deep mutational scanning” (BMC Biology, 2022)
